{
  "source": "patent US20260078146A1",
  "about": "“EPHA2 TARGETING AGENTS AND USES THEREOF” (The Regents of the University of California, priority 2022, published 2026)",
  "molecules": {"B1": {"name": "dimeric targefrin agent 30 (n = 3, GABA spacer) (peptide)", "peptide": "{Acetyl(2-(piperazin-1-yl))}-[Phe(2-NH2)]LA[2‑CF3‑Bip]PDA[Chg]PFRP[GABA]", "chain": "Lys-NH2", "modifications": "also: branching Lys carries a second identical arm (dimer)"}, "B2": {"name": "dimeric targefrin agent 29 (n = 2, β-Ala spacer) (peptide)", "peptide": "{Acetyl(2-(piperazin-1-yl))}-[Phe(2-NH2)]LA[2‑CF3‑Bip]PDA[Chg]PFRP[βAla]", "chain": "Lys-NH2", "modifications": "also: branching Lys carries a second identical arm (dimer)"}, "B3": {"name": "targefrin-dimer (agent 28, n = 1, Gly-Lys linker) (peptide)", "peptide": "XLAXPDAXPFRPG", "chain": "K", "modifications": "branching Lys that carries one arm on each of its two amines; C-terminal CONH2; N-terminal PiperazAcAcid cap; X1 = 2-NH2-Phe; X4 = 2-CF3-Bip; X8 = Chg; the C-terminal Gly is joined to an amine of the branching Lys"}, "B4": {"name": "targefrin (agent 27) (peptide)", "peptide": "XLAXPDAXPFRP", "modifications": "N-terminal PiperazAcAcid cap; X1 = 2NH2-Phe; X4 = 2-CF3-Bip; X8 = Chg; C-terminal CONH2", "notes": "also called targefrin monomer; monomeric version of targefrin"}},
  "key": {"[1]": {"conditions": "8 mg/Kg daily, IV, Balb/C mice, 3 mice"}, "MIA PaCa-2 tumors": {"tested_on": "MIA PaCa-2 tumors", "experiment": "Tumor xenograft with MIA PaCa-2 cells", "type": "in vivo, nu/nu mice"}, "[2]": {"molecular_target": "T1, EphA2 ligand binding domain (EphA2-LBD), recombinant (UniProt P29317 27-200, limits assumed)", "T1 construct": "also called EphA2 protein; isolated EphA2-LBD", "T1 sequence (P29317 27-200 limits assumed)": "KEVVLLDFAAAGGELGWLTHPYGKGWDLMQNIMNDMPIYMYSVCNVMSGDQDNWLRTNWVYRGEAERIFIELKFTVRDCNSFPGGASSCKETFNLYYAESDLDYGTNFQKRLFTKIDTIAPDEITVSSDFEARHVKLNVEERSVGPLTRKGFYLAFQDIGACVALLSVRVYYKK", "experiment": "DELFIA displacement; competitor: immobilised 123B9-Biotin"}, "[3]": {"molecular_target": "T1, EphA2 ligand binding domain …", "experiment": "ITC"}, "[4]": {"conditions": "dose equivalent to […] of PTX (targefrin-PTX 10 mg/Kg, targefrin-dimer-PTX 17 mg/kg), IV days 1, 4, 8, 11, 15, 18, compared to untreated and PTX groups"}},
  "note": "*1 amine or outer side, *2 acyl side, *3 side chain or, on linkers, in order; H or OH if unused. Where no end group is shown, it is not given here. [ ]: non-standard residue; d: D form. The star is where a group is joined. 2‑CF3‑Bip = 4-(2-trifluoromethylphenyl)-L-phenylalanine, O=C([C@H](Cc1ccc(-c2ccccc2C(F)(F)F)cc1)N[*:1])[*:2]; Phe(2-NH2) = O=C([C@H](Cc1ccccc1N[*:3])N[*:1])[*:2]; Acetyl(2-(piperazin-1-yl)) = O=C(CN1CCNCC1)*; Chg = N[C@H](C(=O)O)C1CCCCC1; GABA = NCCCC(=O)O; βAla = NCCC(=O)O",
  "data": [
    {"molecule": "CC(=O)O[C@H]1C(=O)[C@@]2(C)[C@H]([C@H](OC(=O)c3ccccc3)[C@]3(O)C[C@H](OC(=O)[C@H](O)[C@@H](NC(=O)c4ccccc4)c4ccccc4)C(C)=C1C3(C)C)[C@]1(OC(C)=O)CO[C@@H]1C[C@@H]2O", "note": "[PTX, paclitaxel, reference compound]", "values": [
      {"measurement": "mice found dead after the 2nd dose", "setting": "[1]", "value": "2 of 3"}
    ]},
    {"molecule": "CC(=O)O[C@H]1C(=O)[C@@]2(C)[C@H]([C@H](OC(=O)c3ccccc3)[C@]3(O)C[C@H](OC(=O)[C@H](OC(=O)CCCCCn4cc(CCCC(=O)NCCCC[C@H](NC(=O)CNC(=O)[C@H](CCCCNC(=O)CNC(=O)[C@@H]5CCCN5C(=O)[C@@H](CCCNC(=N)N)NC(=O)[C@@H](Cc5ccccc5)NC(=O)[C@H]5CCCN5C(=O)[C@H](NC(=O)[C@@H](C)NC(=O)[C@@H](CC(=O)O)NC(=O)[C@@H]5CCCN5C(=O)[C@H](Cc5ccc(-c6ccccc6C(F)(F)F)cc5)NC(=O)[C@H](C)NC(=O)[C@H](CC(C)C)NC(=O)[C@H](Cc5ccc(N)cc5)NC(=O)CN5CCNCC5)C5CCCCC5)NC(=O)CNC(=O)[C@@H]5CCCN5C(=O)[C@H](CCCNC(=N)N)NC(=O)[C@H](Cc5ccccc5)NC(=O)[C@@H]5CCCN5C(=O)[C@@H](NC(=O)[C@H](C)NC(=O)[C@H](CC(=O)O)NC(=O)[C@@H]5CCCN5C(=O)[C@H](Cc5ccc(-c6ccccc6C(F)(F)F)cc5)NC(=O)[C@@H](C)NC(=O)[C@@H](CC(C)C)NC(=O)[C@@H](Cc5ccc(N)cc5)NC(=O)CN5CCNCC5)C5CCCCC5)C(N)=O)nn4)[C@@H](NC(=O)c4ccccc4)c4ccccc4)C(C)=C1C3(C)C)[C@]1(OC(C)=O)CO[C@@H]1C[C@@H]2O", "note": "[targefrin-dimer-PTX, [PiperazAcAcid-(2-NH2-Phe)-L-A-(2-CF3-Bip)-PD-A-Chg-PFRPG]2-KGK-(Linker)-PTX]", "values": [
      {"measurement": "antitumor effect (tumor volume)", "setting": "MIA PaCa-2 tumors; [4]", "value": "significant antitumor effect"},
      {"measurement": "antitumor effect (tumor volume)", "setting": "MIA PaCa-2 tumors; lower dose 10 mg/kg, equivalent to 1.5 mg/kg of PTX, compared to PTX […] group", "value": "more effective than the PTX treated group"}
    ]},
    {"molecule": "PiperazAcAcid-(2-NH2-Phe)-L-A-(2-CF3-Bip)-PD-A-Chg-PFRPG-K-(Linker)-PTX (XLAXPDAXPFRPGK; not fully specified; non-natural residues) [targefrin-PTX]", "values": [
      {"measurement": "antitumor effect (tumor volume)", "setting": "MIA PaCa-2 tumors; [4]", "value": "significant antitumor effect"}
    ]},
    {"molecule": "B1", "values": [
      {"measurement": "IC50", "setting": "[2]", "value": 5.3, "unit": "nM"}
    ]},
    {"molecule": "B2", "values": [
      {"measurement": "IC50", "setting": "[2]", "value": 7.6, "unit": "nM"}
    ]},
    {"molecule": "B3", "values": [
      {"measurement": "IC50", "setting": "[2]", "value": 6.5, "unit": "nM"}
    ]},
    {"molecule": "B4", "values": [
      {"measurement": "-TΔS", "setting": "[3]", "value": 9.7, "unit": "kcal/mol"},
      {"measurement": "ΔH", "setting": "[3]", "value": -20.2, "unit": "kcal/mol"}
    ]}
  ]
}
